Here are results for one substance from patent US5932432.

In assay [1] the target is yeast RAS1 protein with the carboxy-terminal sequence CAIL (yeast) (UniProt P01119).
Assay [2] deals with yeast RAS1 protein with the carboxy-terminal sequence CAIM (yeast) (UniProt P01119).

Take “farnesyl:protein transferase (FTase) present in a tobacco protein extract (enzyme)”: the lowest protein concentration detected by radiolabeling protein blots with [3H]FPP (in vitro farnesylation, fluorography) in assay [1] was less than 12; in assay [2] it was 0.12 mmol m^-2.
